Tested on: Immunoglobulin E (IgE), P01854-1
Details: 5'-hexylamine coupled Sulfo-SBED (phenyl azide, biotin); 365 nm photo-crosslinking, Western blot; marginal at highest protein concentration only

Chain of Immunoglobulin E (IgE), P01854-1 (P01854 other isoform, or with tags, fused parts or gaps): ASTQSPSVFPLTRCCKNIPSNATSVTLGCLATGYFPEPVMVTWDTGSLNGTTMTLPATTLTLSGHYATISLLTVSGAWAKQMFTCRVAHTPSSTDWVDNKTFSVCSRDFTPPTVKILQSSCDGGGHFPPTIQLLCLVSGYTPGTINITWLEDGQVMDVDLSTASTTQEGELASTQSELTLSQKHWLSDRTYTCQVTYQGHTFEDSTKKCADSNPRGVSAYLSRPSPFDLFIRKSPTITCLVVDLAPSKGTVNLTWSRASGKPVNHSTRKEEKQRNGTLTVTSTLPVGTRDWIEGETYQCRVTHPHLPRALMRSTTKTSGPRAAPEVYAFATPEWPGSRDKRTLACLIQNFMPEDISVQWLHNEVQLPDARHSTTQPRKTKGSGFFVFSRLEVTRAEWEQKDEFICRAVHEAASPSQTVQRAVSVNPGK

## CCAGCTGGCTCACCGTTCGCGCTAGGGCTTTCCGTCG [ABAL-D17.4sc]
  binding signal (fold lower cross-linking than ABAL-D17.4): 17

Source: US20170059576
